{
  "source": "the DeepSol protein solubility set",
  "data": [
    {"assay": "soluble on expression in E. coli; label from the status in PepcDB or PDB records", "values": [
      {"sequence": "MAKGTPVTLTTNTEGATIYYTLDGSNPTNKSVRYNGRIVVNENSVIKAIAEKEGLTSSAISTFSFVIVNNEPVRIHDIQGKSHLSPYNGKKVYNVEGVVTALDKNGFYIEDNQPDNDPATSEGMYVYKKDANVAVGDLIQVDGVVEEYVGPGYAERFDTDLTTTEIKASRVVVIAKDQVLPAPIVLGENGVKIPDQIIDNDAFGLFDPNEDAIDFYESVEGMRVTMPTPKIIAPQKNGNLYVTVKNGGNKVVTKYGTPVLDENQLNPERLSVKVPRDYVAKVGDTFTGDITGVVGYDYGSFRIAPITELPSVVDGGFKQIGANIQPRLEHHHHHH", "soluble on expression in E. coli": "not soluble"},
      {"sequence": "PADLSGTWTLLSSDNFEGYMLALGIDFATRKIAKLLKPQKVIEQNGDSFTIHTNSSLRNYFVKFKVGEEFDEDNRGLDNRKCKSLVIWDNDRLTCIQKGEKKNRGWTHWIEGDKLHLEMFCEGQVCKQTFQRA", "soluble on expression in E. coli": "soluble"},
      {"sequence": "QCSSEVTARYKATLLKGNSLTDLTGGFGIDCAFLAARFKSATYVERQQELCEIAAHNFPILNLNHINVKNEDGVSYLQAMSPVDCIFLDPARRNEHGGKTVAISDCEPDVAELEELLLNKAEQVMVKLSPM", "soluble on expression in E. coli": "not soluble"},
      {"sequence": "MAHHHHHHMSINRYNYKTMNSLLKDKIPQHFDILPHTTIKCIIHPSVIFTILDAYLRRDEDQTHVIGTLMGSVIDTNLVEISDCFVDKHSLNEGGFLQIIKDHHETMYELKQKIRPRDQVVGWFCSGSELSELSCAVHGWFKEHNSISKFYPHTPLNEPIHLLVDASLESGFLNIKAYVQLPISLVKDYFVHFHEIQTELLPCNVERADVSLVKGNIHAHKDNHTNNLEHNHNNNQIDMNELSLKKLLIMLKQCKSYVQDVIDQKKKGNISVGRYLHKVLSNDTFLTLEKFDSINESVLQDNLMISYLSNLANLQFLIAEKLNSSSLQ", "soluble on expression in E. coli": "not soluble"},
      {"sequence": "MGSDKIHHHHHHSNPTRSIPATDAVSSATAGKKMGLQTYSLGQELLQDMPNGLNRLAKAGYTDLEIFGYREDTGKFGDYNPKNTTFIASKDYKKMVDDAGLRISSSHLTPSLREYTKENMPKFDEFWKKATDIHAELGVSCMVQPSLPRIENEDDAKVVSEIFNRAGEITKKAGILWGYHNHSNEFKRVLKAGEKPEQNPNPWAPPKGTYIEELFLKNTDPDKVMFELDVYWAVMGQQDPVEWMENYPNRFKLLHIKDRWIIGDSGMMNFPNIFKKAYEIGILGYYVELEGDKKGRTQFEGVEKSAAYLQAAPFVK", "soluble on expression in E. coli": "not soluble"},
      {"sequence": "MGSDKIHHHHHHMSLVINQLSKRIDHHQTLDGISFEIGLGQIVGVVGRNGVGKTTLFRTINGQYLTDHGQVLVDGQEVVDQPEMRTQLCFIDPLANFFKGATIAQIQWYYQAAYPDFDNAKFAQLLDRYHLTSKQKLRHFSKGMFGLFTIILSVATQAPYLFLDEPLDGLDVLIRKNILGILIDEVATGNRSIVIASHNLAELEGVIDRALMLKHGRIVNDYQLEAMRRSARKVQLVYRDKQIPAVVKQLGHIVHVSGRVIVVVFEDYNAEVQAQLATTNPVFQEDLPLSLADLFMANLTDEADFELLS", "soluble on expression in E. coli": "not soluble"},
      {"sequence": "MAHHHHHHMQDEHKFNAEDRRRAPPPNTPERALDYHERTNDDKLIAHASQVNHLSKPRHRNCLTEFIIVETPVVSFLVDSSDPSLCLLRRSGRQGTKNEEKGVH", "soluble on expression in E. coli": "soluble"},
      {"sequence": "MGSDKIHHHHHHMPTDHSFQIKPSQAAPLTSQQLYRKCDLKELSTDCQSTAELTPLDDIVGQERAQQAVEFAMGIKEKGYNIYAIGQNGLGKRTMMLRYLNRHEPSEHSLYDWCYVVNFDDTRSPKVLKLAAGSGLEFKKAIEKLMLKLVKALPLAFDNEMYYARAEKLKSQLAQKQEAALTELSEEAKQKGISLSLTLQGDYQMIALNGEEPHDEYSFTALTETERNQFESNINGLEVKLRNIIRQNTEWEEEFSDTQQEHDEQVAKDVLIHFFKPLKDKYKHQPEVRAFLTGMQADILDNLDIFLEESEEQLALAYASLEKKMPRRYQVNVLVCQGAQKFPIVVEESPSYHSLFGYVENATFRGTVFTDFSLIRSGSLHKANGGVLLMDAVKVLERPYVWDGLKRALRSRKLDLSSLEREVSLSGTISLAPEPIPLDVKIILFGDHETYQLYNTMIQILVNYLELPLILKM", "soluble on expression in E. coli": "not soluble"},
      {"sequence": "SNAGAPLKAVSAFAPPMKTQDFNLYTNEVHAKFDDYDLGMEYARQHNKPVMLDFTGYGCVNCRKMELAVWTDPKVSSIINNDYVLITLYVDNKTPLTEPVKIMENGTERTLRTVGDKWSYLQRVKFGANAQPFYVLIDNEGNPLNKSYAYDEDISKYINFLQTGLENYRKEK", "soluble on expression in E. coli": "soluble"},
      {"sequence": "MLDPFSEKAKELLKEFGSMNEFLQAIPSLVDIEEVMNRLKFAKESEISEDILNIEDIRDLASFYAQIGALAYSPYGLELELVKKANLRIYTERIRRRRKIRSDEIGIEVKIAVEFPENDIKTLEKVYGGLPEYIVSLREFLDLVPDEKLSSYYVYDGNVYLRKDDLLKVWSKAFERNVEKAVNIIYEIRDELPEFYRRLAGEIRSFAEKEFSDKFREVQAGELKHHLFPPCVKNALRGVPQGMRNYAITVLLTSFLSYARICPNPPRRNVKIRDCIKDMRVITEEILPIIIEAGNRCSPPLFEDQPNEIKNIWYHLGFGYTANPTLEDSGNSTWYFPPNCDKIKANAPQLCTPDKHCRYIRNPLTYYLRRLYLEEKRRAKHADEGSDKGGKERILQLEHHHHHH", "soluble on expression in E. coli": "not soluble"},
      {"sequence": "MSLKPKRILLVNEQRSFQVMMKAMLINIGISRITYANSAEEARRRCQKETFDIYLLDYELGVGENGRQLLESLRDQKLIPPQSVVIMVSGDSSRAMVLSALEAEPDEYLMKPFSQEQFSFRLKRALARRQALESVFSALAKEDLPTLLAACAERADAVPRFANFCRCLQADTQLKLGQAKEARSLMRQLLAGQENSWARLTLGKACHTLGLNEEAVSHLQATLKNTPLMVEAHLWLAESQLALGNDEQAQQELKRAVDISPQSVQLSRRLAEVCLLRHDYAQAKDVLLSLIDLSRNSIHRTPHYLGAYIQSLTLYALNSNEGHHHHHH", "soluble on expression in E. coli": "not soluble"},
      {"sequence": "MGSDKIHHHHHHMAIACVMTRASCGVQAPKVIVEVHLSNGLPGFSLVGLPEASVKEAKERVRSALINAGFEFPMQRITVNLAPADLPKQGGRYDLPIAIGILAASEQIPKKAIADAEFVGELALTGQVRPCVGLLPAIIAARDDGHPMFMPLDNRHEAELVGYQQCHFVADLQHLAAFIHGQGQLPKVDNQTQWITESAVDPKLCLSDVIGQYQAKQGLEIAAAGGHNLLLMGPPGTGKSMLASRIIPLLPNLSYQEAIEVAAIHSVAGLNTPSHNFLQRPFRSPHHTCSAISLVGGGSVPKPGEISLAHRGILFLDELPEFPRRVLDCLREPMETGEVVISRAAAKLTFASRFQLIAAMNPSPCGNVDKARSTPDQIQRYLSRLSGPFLDRFDLTVDVPKLPSGALSQANIQAETSISVAARVRKAREKQLERSGVLNNELSPKALKKVANLDQANLIFLEQSVQLLGLSVRSFHKIQRVACTIADLQEEAKVDRAHLAQALGYRAMDRLIARLRQQ", "soluble on expression in E. coli": "not soluble"},
      {"sequence": "MGHHHHHHSHPSIPNPFPELCCSPFTSVLSADLFPKANSRKKQVIKVYSEDETSRALDVPSDITARDVCQLLILKNHYIDDHSWTLFEHLPHIGVERTIEDHELVIEVLSNWGIEEENKLYFRKNYAKYEFFKNP", "soluble on expression in E. coli": "soluble"},
      {"sequence": "MSVEASRTCFLIDSLLNKKPKEELETEEEDEEEDEEEELSSSEVTSENDMETESASSSASSVGQPKPDFSAFHKIFSNLDFAKLAAVKRNGHHQPMLFRPECFFPLELSKHLHLVQQTFQMNVLQNLGHTLPLPFVPMLKNVAPAQKRLNNKRASYVDHSQKGNLKKYRCDVCDKTFSRSNTLITHKRIHTGEKPFKCEHCGRAFRQPGNLTRHRLTHTTVKPYVCGLCDKAFNRASNLHTHMRTHTNV", "soluble on expression in E. coli": "not soluble"},
      {"sequence": "GAKSIYEFQVNAADGKPYDLSQHKGHPLLIYNVASRCGYTKGGYETATTLYNKYKGQGFTVLAFPCNQFAGQEPGTALEVKEFACTRFKADFPIMAKIDVNGSKAHPLYEFMKATIPGLFGTKAIKWNFTSFLIDRHGVPVERFSPGASVEDIEKKLLPLLGGARI", "soluble on expression in E. coli": "soluble"},
      {"sequence": "MGSDKIHHHHHHMDRINYKHLHYFWHVARAGSVTRAAGQLNVSMQTISGQITKLEQQLGRSLFRQQGRGLALTEAGRLALDYADRIFLLGEELETALADPLLDQTLRLAAGISDVVPKGIASRLLRPALRTNGRLRLSCGEGDFDELIGELGRHRLDLVLADRPVASGEQQQFQSWPLLRCPVQLLAAPELHARCQAGFPASLEQAPLLLPSRDNVLRRQLEHWFDANGVRPDLVGEFDDHALMETFARQGLGLLPAPVSPDGEADHPGLLPLGALDGVWEHYYVTASRRKLQHPALQAILQAWT", "soluble on expression in E. coli": "not soluble"},
      {"sequence": "MVERYSLSPMKDLWTEEAKYRRWLEVELAVTRAYEELGMIPKGVTERIRNNAKIDVELFKKIEEKTNHDVVAFVEGIGSMIGEDSRFFHYGLTSSDVLDTANSLALVEAGKILLESLKEFCDVLWEVANRYKHTPTIGRTHGVHAEPTSFGLKVLGWYSEMKRNVQRLERAIEEVSYGKISGAVGNYANVPPEVEEKALSYLGLKPEPVSTQVVPRDRHAFYLSTLAIVAAGIERIAVEIRHLQRTEVLEVEEPFRKGQRGSSAMPHKKNPITCERLTGLSRMMRAYVDPSLENIALWHERDISHSSVERYVFPDATQTLYYMIVTATNVVRNMKVNEERMKKNIDLTKGLVFSQRVLLKLIEKGLTRKEAYDIVQRNALKTWNSEKHFLEYLLEDEEVKKLVTKEELEELFDISYYLKHVDHIFERFEKE", "soluble on expression in E. coli": "soluble"},
      {"sequence": "MLLAGLLASVEHGLNRVLRLDSTALPRLAALEGKVIEIDCRQPALQVFILPDEEGLMLAAHWQGEVDCRLRAPAGSLAQLALVKDKTAVLHSPQVELHGDSAVLLDLFGVLQDLELDWEHELQRWLGPVATAMLAGHIRLRARWTRQGLARFSQNLSEYLAEESRTLVGKREAEAAFSELDALKLDTERLEARLKRLSRSLDTSDNA", "soluble on expression in E. coli": "not soluble"},
      {"sequence": "MGSDKIHHHHHHMINLFLYCRAGYEKDCAAEIQQRAAELNVGGFVKTNRNDGYVIFQCFQVGDADLLAEQIELDSLIFTRQMFAANELLKDLPEGDRVTPIVDALAKVHRAGELRVETPDTNEAKELSTFCRKLTVPLRQALKRSGALLEKENPKRPIIHVCFVGPGTAYVGYSLSHNSSPYFMGIPRLKMASDAPSRSTLKLDEAFIHFIPKSEQEQRLRSGMNSVDLGACPGGWTYQLVRRGMFVAAVDNGPMAQNLMDTGQVRHYQADGFRFEPPKKNIYWLVCDMVEKPSRVAELMEAWAINGWFKEAIFNLKLPMKSRYKEVSTILATMQEVLRENGIDDFHLACKHLYHDRDEVTVHLWLKPSVGFNFG", "soluble on expression in E. coli": "not soluble"},
      {"sequence": "MAGLKYEDAGVNIEAGNQAVERMKQHVKKTFTQDVLTGLGSFGSLYSLKNIINNYDDPVLVQSIDGVGTKTKVAVMCGKFENLGYDLFSAATNDIVVMGAKPITFLDYVAHDKLDPAIMEELVKGMSKACAECGVSLVGGETAEMPGVYQAGEIDMVGVITGIVDRKRIINGENIKEGDIVFGLSSSGLHTNGYSFARKLFFDVAGNKHTDTYPELEGKTIGDVLLEPHINYTNIIHDFLDNGVDIKGMAHITGGGFIENIPRVLPQGLGAQIDKDSFATPAIFKLMQRIGDISEFEMYRSFNMGIGMTIIASQDQFDKMQELAKKHTNTKLYQIGKITNSGKVEII", "soluble on expression in E. coli": "soluble"},
      {"sequence": "VTSDPGTAAPVKRTAEQSRSLIVDAAGRAFATRPYREITLKDIAEDAGVSAPLIIKYFGSKEQLFDALVDFRAAAEIVFSGPLDGLGERMVSMFARPLEPYKPLSLNILFMSGPSEESSRKLRANYSAQMIDALAERLPGRDARLRAELVMSMLTGLAVMRRKMMQEHATGTPEEVVAHYAPLVQELLDG", "soluble on expression in E. coli": "soluble"},
      {"sequence": "MAHHHHHHMFPGEQDITGSQLAEYVREQVQASANLVVYVEDTHCDVDTIGLRRLHATIGGTAVFSGYDLYRRSKYEKVEQGLDELWTSNVVLEASAIGSLSALCDNVRMVRRHEGCTIALAPQSLMHNVAFAVHLAVGVGARFLCVGGLMDVVQCEVVSQYLYVQDELEQSRLLLEEAPKPPCAVLPDAPTDTVPEIKRRLDKKKRKK", "soluble on expression in E. coli": "not soluble"}
    ]}
  ]
}
